In article PMC6031081, “A Novel UDP-Glycosyltransferase of Rhodiola crenulata Converts Tyrosol to Specifically Produce Icariside D2” (BioMed Research International, 2018):

Substrate: OCCc1ccc(O)cc1
Test: purified protein
Format: biochemical, Rhodiola crenulata
Details: UDP-glucose co-substrate (2 mM), tyrosol varied 0.5-5 mM, 50 mM Tris-HCl, pH 8.6, 30°C, 30 min

B1: RcUGT1 (Rhodiola crenulata) (protein)
chain: MDSDSRPLRVFFFPFMAHGHLIPMVDIARLFSSQGVHSTIITTPLNANYISKTTSLSIKTLPFQASKVGLPDGCENVDMLPSPDLIFKFFQAANLLQKPFENLLELEKPDCLISDIFFPWSVDSAGKFNIPRLVFHGTSFFAMCAMESLKTHKPYKSVSTDSEPFVIPNLPDEIKMTKSQFTVDAWEDTEKGVGKLLADARASGLRSFGVVVNSFYELEPAYADYYKNVLNMKAWCVGPVSVCYRNDEEKIARGKKSAIDDHECLKWLEGKQPDSVVYVCFGSGASFPDEQLRDIALGLEDSGVNFIWVIRRSSESGSEDYLPEGFEDRVEGSGLVIRGWAPQVLILDHPSVGGFVTHCGWNSALEGISAGLPMVTWPLFAEQFFNQKLITDVLKIGVEVGVQKWSRNGEDRVTKEKVEKAVRAVMVGEVAEERRGRARQLGKLAKNAAAKDGSSFIDLHNLLDELKLRRVPLS
notes: 6xHis tag (pQE30), E. coli M15, Ni-NTA purified; primers encode ends MDSDSRP...RRVPLS
Km: 972.75 ± 104.31 µM
Vmax: 0.0172 µmol/min/mg
kcat: 0.0155 ± 0.00044 s⁻¹
